Experiment [1] has as its target T1, Monkey CD96-3xFlag (cyno-CD96-3xFLAG) (cynomolgus monkey).
T1 construct: Signal peptide marked only by lost underlining; also called cynomolgus CD96
T1 chain: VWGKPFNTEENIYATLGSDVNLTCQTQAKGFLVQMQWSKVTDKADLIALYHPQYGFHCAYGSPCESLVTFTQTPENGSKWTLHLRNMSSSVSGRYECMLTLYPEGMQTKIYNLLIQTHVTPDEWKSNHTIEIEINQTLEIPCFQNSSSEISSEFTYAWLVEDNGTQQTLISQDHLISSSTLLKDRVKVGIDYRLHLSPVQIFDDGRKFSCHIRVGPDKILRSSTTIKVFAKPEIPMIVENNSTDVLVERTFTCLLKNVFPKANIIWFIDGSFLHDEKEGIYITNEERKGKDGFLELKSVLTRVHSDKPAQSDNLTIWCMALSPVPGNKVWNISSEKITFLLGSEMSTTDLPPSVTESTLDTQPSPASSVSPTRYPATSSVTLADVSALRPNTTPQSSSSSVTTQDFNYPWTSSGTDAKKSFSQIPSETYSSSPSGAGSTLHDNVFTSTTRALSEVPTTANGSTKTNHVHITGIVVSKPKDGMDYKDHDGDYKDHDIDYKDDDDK
Put plainly: ELISA, cyno-CD96-3xFLAG coated. As for the experimental part: The cross-reactive binding capacity of the anti-CD96 antibody to monkey CD96 was tested by ELISA to determine the binding of the antibody to cynomolgus CD96 protein. The 3×FLAG-tagged CD96 fusion protein was used to coat the microtiter plate, and the intensity of the signal after adding with the antibody was used for evaluating the binding activity of the antibody and cynomolgus CD96. The specific experimental method is as follows:
cyno-CD96-3×FLAG with the amino acid sequence of SEQ ID NO: 95 prepared in Embodiment 4 was diluted to a concentration of 2 μg/ml with PBS buffer (Shanghai Yuanpei Biotechnology Co., Ltd. Cat No. B320), pH 7.4, added to a 96-well microtiter plate (Corning, Cat No. CLS3590-100EA) at a volume of 50 μl/well, and placed in an incubator at 37° C. for 2 hours. After discarding the liquid, 250 μl/well of 5% skim milk (BD, 232100) blocking solution diluted with PBS was added, and the plate was incubated in an incubator at 37° C. for 2.5 hours or at 4° C. overnight (16-18 hours) for blocking. After blocking, the blocking solution was discarded, and the plate was washed 4 times with PBST buffer (pH 7.4 PBS containing 0.05% tween-20). 50 μl/well of different concentrations of the antibodies to be tested (hybridoma purification antibody or humanized antibody) diluted with sample dilution was added, and the plate was incubated in an incubator at 37° C. for 1 hour. […] After washing the plate 4 times with PBST, 50 μl/well of TMB chromogenic substrate (KPL, Cat No. 52-00-03) was added, and the plate was incubated at room temperature for 5-15 minutes, followed by adding 50 μl/well of 1M H₂SO₄ to stop the reaction. The absorption value was read at 450 nm with a NOVOStar microplate reader, and the EC50 value of the binding of CD96 antibody to monkey CD96 was calculated (see Table 14).
(In an ELISA, binding on a coated surface is turned into a signal by an enzyme label.)

The target of experiment [2] is T2, CD96 extracellular region with His tag (CD96-His) (human, UniProt P40200 22-519).
T2 construct: also called CD96-ECD-His; Bio-CD96-His (biotin-labelled form)
T2 sequence: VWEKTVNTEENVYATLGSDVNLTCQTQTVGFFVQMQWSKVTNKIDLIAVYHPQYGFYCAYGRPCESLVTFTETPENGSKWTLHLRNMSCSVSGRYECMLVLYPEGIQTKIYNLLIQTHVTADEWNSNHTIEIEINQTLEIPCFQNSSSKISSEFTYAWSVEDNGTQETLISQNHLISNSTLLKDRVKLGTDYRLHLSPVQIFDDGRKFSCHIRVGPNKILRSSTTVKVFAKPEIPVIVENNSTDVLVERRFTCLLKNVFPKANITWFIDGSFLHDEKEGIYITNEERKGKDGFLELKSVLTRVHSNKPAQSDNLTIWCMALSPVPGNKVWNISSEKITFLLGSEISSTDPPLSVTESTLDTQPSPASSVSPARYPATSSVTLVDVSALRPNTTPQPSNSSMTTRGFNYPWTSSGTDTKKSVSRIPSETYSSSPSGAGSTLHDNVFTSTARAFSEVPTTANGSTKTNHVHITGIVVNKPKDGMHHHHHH
The experiment in a line: blocking cell ELISA: antibody premixed with Bio-CD96-His (0.5 ug/mL), binding to fixed CD155-CHO cells. The protocol: (§1) CD155-CHO cells (constructed by Shanghai Hengrui) were seeded in 96-well culture plates at a density of 9×10⁴/100 μL/well and cultured overnight. After aspirating the supernatant, the plate was washed once with PBS, 100 μl/well of immunostaining fixation solution (Biyuntian, Cat No. P0098) was added and fixed for one hour at room temperature, and the plate was washed three times with PBS. After discarding the liquid, 250 μl/well of 5% skim milk (BD, Cat No. 232100) blocking solution diluted with PBS was added, and the plate was blocked in an incubator at 37° C. for 2.5 hours. After blocking, the blocking solution was discarded, subsequently, the plate was washed 4 times with PBST buffer (pH 7.4 PBS containing 0.05% tween-20). 50 μl/well of antigen-antibody pre-incubation solution (gradient concentrations of the hybridoma antibody to be tested and CD96-Fc at a final concentration of 0.5 μg/mL were premixed at 37° C. for 30 minutes, or gradient concentrations of humanized antibody samples and Bio-CD96-His at a final concentration of 0.5 μg/mL were premixed at 37° C. for 30 minutes) (Biotin-labeled kit, Dongren Chemical, Cat No. LK03) was added, and the plate was incubated in an incubator at 37° C. for 2 hours. After incubation, the reaction solution in the microtiter plate was discarded, the plate was washed 4 times with PBST, and 50 μl/well of HRP-labeled goat anti-human secondary antibody (Jackson Immuno Research, Cat No. 109-035-003) diluted with sample dilution or HRP-labeled streptavidin diluted with sample dilution (Sigma, Cat No. 52438) was added, followed by incubating at 37° C. for 1 hour. After washing the plate 4 times with PBST, 50 μl/well of TMB chromogenic substrate (KPL, Cat No. 52-00-03) was added, the plate was incubated at room temperature for 10-20 minutes, followed by adding 50 μl/well of 1M H₂SO₄ to stop the reaction. The absorption value was read at 450 nm with a NOVOStar microplate reader, and the EC50 value of the effect of CD96 antibody on blocking the binding between the antigens and CD155-CHO cells was calculated (see FIG. 2 and Table 16).

For experiment [3], the target named is T2, CD96 extracellular region with His tag …. The experiment in a line: blocking cell ELISA: antibody premixed with CD96 antigen (0.5 ug/mL), binding to fixed CD155-CHO cells. The protocol:
as §1

The values below come from patent US20200347130A1 (JIANGSU HENGRUI MEDICINE, published 2020).

The term EC50 denotes the concentration at which the effect is half-maximal. What is called IC50 is the midpoint of a concentration-inhibition curve.

B1: h1722-010 (antibody, V domains shown)
VH: EVQLVQSGAEVKKPGSSVKVSCKASGGTFSDYWMHWVRQAPGQGLEWIGMLHPNSGTTSFNEKFKIRVTITADKSTSTAYMELSSLRSEDTAVYYCASDYSGPFAYWGQGTLVTVSS
VL: DIQLTQSPSSLSASVGDRVTITCSASSSVNYIHWYQQKPGKAPKRWIFDTSKLASGVPSRFSGSGSGTDYTLTISSLQPEDFATYYCQQWRSNPLTFGQGTKLEIK
notes: Only variable regions are tied to this name; also called M722-010
The molecule B1 registered an EC50 in experiment [1] of 0.047 nM. Also, the IC50 in experiment [2] is 0.207 nM.

B2: h1722-006 (antibody, V domains shown)
VH: EVQLVQSGAEVKKPGSSVKVSCKASGGTFSDYWMHWVRQAPGQGLEWIGMLHPNSGTTSFNEKFKIRVTITADKSTSTAYMELSSLRSEDTAVYYCASDYSGPFAYWGQGTLVTVSS
VL: DIQMTQSPSSLSASVGDRVTITCSASSSVNYIHWYQQKPGKAPKRWIYDTSKLASGVPSRFSGSGSGTDFTLTISSLQPEDFATYYCQQWRSNPLTFGQGTKLEIK
notes: Only variable regions are tied to this name
B2 came in with an IC50 in experiment [2] of 0.398 nM.

B3: h1722-017 (antibody, V domains shown)
VH: EVQLVQSGAEVKKPGSSVKVSCKASGGTFSDYWMHWVRQAPGQGLEWIGMLHPKSGTTSFNEKFKIRVTITADKSTSTAYMELSSLRSEDTAVYYCASDYSGPFAYWGQGTLVTVSS
VL: DIQLTQSPSSLSASVGDRVTITCSASSSVNYIHWYQQKPGKAPKRWIFDTSKLASGVPSRFSGSGSGTDYTLTISSLQPEDFATYYCQQWRSNPLTFGQGTKLEIK
In experiment [1], B3 returned an EC50 of 0.047 nM. Moreover, in experiment [2], the IC50 stood at 0.135 nM.

B4: h1722-018 (antibody, V domains shown)
VH: EVQLVQSGAEVKKPGSSVKVSCKASGGTFSDYWMHWVRQAPGQGLEWIGMLHPQSGTTSFNEKFKIRVTITADKSTSTAYMELSSLRSEDTAVYYCASDYSGPFAYWGQGTLVTVSS
VL: DIQLTQSPSSLSASVGDRVTITCSASSSVNYIHWYQQKPGKAPKRWIFDTSKLASGVPSRFSGSGSGTDYTLTISSLQPEDFATYYCQQWRSNPLTFGQGTKLEIK
In experiment [1], B4 yielded an EC50 of 0.051 nM. Besides, the IC50 in experiment [2] came out at 0.134 nM.

B5: ch1720 (antibody, human IgG4 S228P, kappa, V domains shown)
VH: EFQLQQSGPELVKPGASVKISCKASAYSLTDYNMNWVKQSNGKSLEWIGVINPSYGISSYNQKFKGKATLTVDQSSSTAYMHLNSLTSEDSAVYYCARQLRLPGYFDVWGTGTTVTVSS
VL: DIKMTQSPSSKNASLGERVTITCKASQDINSYLNWFQQKPGKSPKTLIYRASRLVDGVPSRFSGSGSGQDYSLTISSLEYEDMGIYYCLKYDEFPYTFGGGTKLEIKR
notes: also called chimeric antibody corresponding to m1720
In turn, B5 had a half-inhibitory concentration (IC50) in experiment [3] of 0.149 nM. The EC50 in experiment [1] is 0.096 nM.

B6: ch1718 (antibody, human IgG4 S228P, kappa, V domains shown)
VH: EFQLQQSGPELVKPGASVKISCKASAYSITDYNMNWVKQSNGKSLEWIGVINPSYGITDYNQNFKDKATLTVDQSSSTAYMQLNSLTSEDSAVYYCAIQLRLPGYFDVWGTGTTVIVSS
VL: DIKMTQSPSSMYASLGERVTITCKASQDINNYLNWFQQKPGKSPKTLIYRANRLVDGVPSRFSGSGSGQDYSLTISSLEYEDMGIYYCLKYDEFPYTFGGGTKVEIKR
notes: also called chimeric antibody corresponding to m1718
As to B6, the 50% inhibitory concentration (IC50) in experiment [3] was 0.096 nM. Further, the concentration giving a half-maximal response (EC50) in experiment [1] was determined as 0.068 nM.

B7: ch1719 (antibody, human IgG4 S228P, kappa, V domains shown)
VH: QVQLKESGPGLVAPSQSLSITCTVSGFSLISYGVSWVRQPPGKGLEWLGVIWGDGNTNYHSVLISRLSIRKDDSKSQVFLKLNSLQTDDTATYYCAKNNYYGSRYGYPMDYWGQGTSVTVSS
VL: DIVMTQSHKFMSTSVGDRVSITCKATQDVGTAVAWYQQKPGHSPKLLIYWASTRHTGVPERFTGSGSGTDFTLTIDNVQSEDLADYFCQQYGSSVLTFGAGTKVELRR
notes: also called chimeric antibody corresponding to m1719
Molecule B7 came in with a half-inhibitory concentration (IC50) in experiment [3] of 0.137 nM. Besides, the EC50 in experiment [1] is 0.047 nM.

B8: h1721-003 (antibody, V domains shown)
VH: EVTLKESGPVLVKPTETLTLTCTVSGFSLSSYGVNWIRQPPGKALEWLGVIWGDGSTNYHSALISRLTISKDTSKSQVVLTLTNMDPVDTATYYCAKNYFYGSRYGYAMDSWGQGTTVTVSS
VL: DIQMTQSPSSLSASVGDRVTITCRASENIYSSLAWYQQKPGKAPKLLIYNAKTLIEGVPSRFSGSGSGTDFTLTISSLQPEDFATYYCQHHYGTPYTFGGGTKVEIK
notes: Only variable regions are tied to this name; also called M721-003
The molecule B8 yielded an EC50 in experiment [1] of 0.037 nM. In experiment [2], the IC50 is 0.155 nM.

B9: h1719-006 (antibody, V domains shown)
VH: EVTLKESGPVLVKPTETLTLTCTVSGFSLSSYGVSWVRQPPGKGLEWLGVIWGDGNTNYHSVLISRLTISKDTSKSQVVLTLTNMDPVDTATYYCAKNNYYGSRYGYPMDYWGQGTTVTVSS
VL: DIQMTQSPSSVSASVGDRVTITCKATQDVGTAVAWYQQKPGKSPKLLIYWASTRHTGVPERFSGSGSGTDFTLTISSLQPEDFATYFCQQYGSSVLTFGGGTKVEIK
notes: also called M719-006
B9 came in with an IC50 in experiment [2] of 0.064 nM.

B10: h1719-014 (antibody, V domains shown)
VH: EVTLKESGPVLVKPTETLTLTCTVSGFSLSSYGVSWVRQPPGKGLEWLGVIWGDGNTNYHSVLISRLTISKDTSKSQVVLTLTNMDPVDTATYYCAKNYYYGSRYGYPLDYWGQGTTVTVSS
VL: DIQMTQSPSSVSASVGDRVTITCKATQDVGTAVAWYQQKPGKSPKLLIYWASTRHTGVPERFSGSGSGTDFTLTISSLQPEDFATYFCQQYGSSVLTFGGGTKVEIK
notes: Only variable regions are tied to this name; also called M719-014
In turn, B10 had an EC50 in experiment [1] of 0.065 nM. In addition, the IC50 in experiment [2] came to 0.046 nM.

B11: h1718-012 (antibody, V domains shown)
VH: EVQLVQSGAEVKKPGASVKVSCKASGYTITDYNMNWVRQAPGQRLEWIGVINPSYGITDYNQNFKDRVTITVDTSASTAYMELSSLRSEDTAVYYCAIQLRLPGYFDVWGQGTTVTVSS
VL: DIQMTQSPSSLSASVGDRVTITCKASQDINQYLNWFQQKPGKAPKTLIYRANRLVDGVPSRFSGSGSGQDYTLTISSLQPEDFATYYCLKYDEFPYTFGGGTKVEIK
notes: as for B2
Consider B11, for which, in experiment [1], the half-maximal effective concentration (EC50) was 0.075 nM. The IC50 in experiment [2] is 0.133 nM.
